US12060408B2, “Screening assays, modulators and modulation of activation of Receptor for Advanced Glycation End-products (RAGE)” (Monash University, priority 2017, dated 2024)
Ends that are not written are not given here.

Experiments:
Assay type in all cases: cell-based
RAGE = target: T1, RAGE (Homo sapiens, UniProt Q15109); assay: Ang II-induced pro-inflammatory gene expression in human aortic endothelial cells (HAEC); conditions: HAECs; 1 μM, 30 minutes before Ang II; FIG. 13G
T1 construct: RAGE-AT1R—CHO cells expressing both full length RAGE and AT1R; expressed in transfected cells
T1 sequence (Q15109 23-404): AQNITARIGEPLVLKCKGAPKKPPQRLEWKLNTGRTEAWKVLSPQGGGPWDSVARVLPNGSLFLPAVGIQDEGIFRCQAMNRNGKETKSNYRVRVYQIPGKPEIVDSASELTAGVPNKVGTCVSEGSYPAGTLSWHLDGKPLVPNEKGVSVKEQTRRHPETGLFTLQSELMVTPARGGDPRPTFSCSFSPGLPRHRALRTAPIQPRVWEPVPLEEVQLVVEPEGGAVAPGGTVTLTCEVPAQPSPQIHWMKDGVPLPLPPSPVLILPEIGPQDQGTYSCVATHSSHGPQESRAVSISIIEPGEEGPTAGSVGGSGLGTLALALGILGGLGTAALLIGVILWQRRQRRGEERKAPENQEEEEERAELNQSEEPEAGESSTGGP
Experimental: To confirm the applicability of inhibition strategies to human tissues, additional experiments were undertaken in primary aortic endothelial cells from humans (Lonza). HAECs were grown in EGM-2 media. […]

[1] = target: T2, neuropeptide Y1 receptor (NPY1R) and RAGE (Homo sapiens, UniProt P25929+Q15109); assay: Ligand-induced BRET, Rluc8-tagged GPCR and RAGE/Venus; conditions: mCherry-RAGE338-361 co-expressed, FIG. 21F
T2 construct: expressed in transfected cells; host or cells: HEK293FT

[2] = target: T3, vasopressin receptor 1A (V1aR) and RAGE (Homo sapiens, UniProt P37288+Q15109); assay: as above; conditions: mCherry-RAGE338-361 co-expressed, FIG. 21F
T3 construct: expressed in transfected cells; host or cells: HEK293FT

[3] = system: thyrotropin-releasing hormone receptor 1 (TRHR1) and RAGE; assay: as above; conditions: mCherry-RAGE338-361 co-expressed, FIG. 21F
CCR7 and RAGE = target: T4, CCR7 and RAGE (Homo sapiens, UniProt P32248+Q15109); assay: as above; conditions: mCherry-RAGE338-361 co-expressed, FIG. 21F
T4 construct: expressed in transfected cells; host or cells: HEK293FT

CCR4 and RAGE = target: T5, CCR4 and RAGE (Homo sapiens, UniProt P51679+Q15109); assay: as above; conditions: mCherry-RAGE338-361 co-expressed, FIG. 21F
T5 construct: expressed in transfected cells; host or cells: HEK293FT

[4] = target: T6, adenosine A1 receptor (ADORA1) and RAGE (Homo sapiens, UniProt P30542+Q15109); assay: as above; conditions: mCherry-RAGE338-361 co-expressed, FIG. 21F
T6 construct: expressed in transfected cells; host or cells: HEK293FT

AT1 = target: T7, AT1 (Homo sapiens, UniProt P30556); assay: BRET between mCherry-RAGE338-361 and Nluc-AT1; design: expressed in transfected cells; host or cells: HEK293FT, transient; conditions: FIG. 21A
T7 sequence (P30556 1-359): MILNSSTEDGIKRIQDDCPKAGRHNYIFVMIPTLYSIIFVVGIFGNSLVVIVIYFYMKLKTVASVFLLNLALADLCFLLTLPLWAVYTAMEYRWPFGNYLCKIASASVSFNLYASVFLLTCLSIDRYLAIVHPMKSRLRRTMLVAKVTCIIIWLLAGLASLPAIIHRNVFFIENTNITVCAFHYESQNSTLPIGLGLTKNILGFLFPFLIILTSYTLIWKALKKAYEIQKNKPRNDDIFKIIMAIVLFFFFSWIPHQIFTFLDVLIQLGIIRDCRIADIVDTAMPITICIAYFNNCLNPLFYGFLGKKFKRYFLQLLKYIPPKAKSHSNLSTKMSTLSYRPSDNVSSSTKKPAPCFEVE

[5] = target: T8, vasopressin receptor 1B (V1bR) and RAGE (Homo sapiens, UniProt P47901+Q15109); assay: Ligand-induced BRET, Rluc8-tagged GPCR and RAGE/Venus; conditions: mCherry-RAGE338-361 co-expressed, FIG. 21F
T8 construct: expressed in transfected cells; host or cells: HEK293FT
T8 sequence (P47901 whole entry): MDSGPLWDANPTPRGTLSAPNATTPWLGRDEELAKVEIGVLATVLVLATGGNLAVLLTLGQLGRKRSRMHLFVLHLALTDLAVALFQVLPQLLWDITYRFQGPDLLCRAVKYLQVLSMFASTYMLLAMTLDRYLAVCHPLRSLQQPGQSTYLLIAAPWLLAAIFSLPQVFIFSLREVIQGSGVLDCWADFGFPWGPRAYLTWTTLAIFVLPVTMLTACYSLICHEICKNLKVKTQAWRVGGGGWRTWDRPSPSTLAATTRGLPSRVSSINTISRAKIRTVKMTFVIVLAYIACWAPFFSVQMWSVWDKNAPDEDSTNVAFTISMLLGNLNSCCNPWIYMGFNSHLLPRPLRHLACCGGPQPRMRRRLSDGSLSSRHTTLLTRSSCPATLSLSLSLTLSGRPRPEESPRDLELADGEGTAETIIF
T8 sequence (Q15109 23-404): as the sequence (Q15109 23-404) above

[6] = target: T9, sphingosine 1-phosphate receptor 1 (S1PR1) and RAGE (Homo sapiens, UniProt P21453+Q15109); assay: as above; conditions: mCherry-RAGE338-361 co-expressed, FIG. 21F
T9 construct: expressed in transfected cells; host or cells: HEK293FT
T9 sequence (P21453 whole entry): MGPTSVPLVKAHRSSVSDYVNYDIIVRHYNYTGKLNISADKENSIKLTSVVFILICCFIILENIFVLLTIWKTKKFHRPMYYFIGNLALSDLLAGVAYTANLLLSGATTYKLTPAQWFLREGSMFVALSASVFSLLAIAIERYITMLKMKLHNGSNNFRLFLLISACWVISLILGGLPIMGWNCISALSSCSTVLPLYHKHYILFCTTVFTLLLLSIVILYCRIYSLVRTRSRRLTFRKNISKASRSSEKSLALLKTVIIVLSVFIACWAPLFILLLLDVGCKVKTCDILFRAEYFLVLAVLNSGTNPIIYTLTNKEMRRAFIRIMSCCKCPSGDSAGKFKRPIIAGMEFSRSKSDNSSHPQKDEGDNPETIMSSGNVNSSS
T9 sequence (Q15109 23-404): as the sequence (Q15109 23-404) above

CCR9 and RAGE = target: T10, CCR9 and RAGE (Homo sapiens, UniProt P51686+Q15109); assay: as above; conditions: mCherry-RAGE338-361 co-expressed, FIG. 21F
T10 construct: expressed in transfected cells; host or cells: HEK293FT

[7] = target: T11, orexin receptor 2 and RAGE (Homo sapiens, UniProt O43614+Q15109); assay: as above; conditions: mCherry-RAGE338-361 co-expressed, FIG. 21F
T11 construct: expressed in transfected cells; host or cells: HEK293FT

CCR1 and RAGE = target: T12, CCR1 and RAGE (Homo sapiens, UniProt P32246+Q15109); assay: as above; conditions: mCherry-RAGE338-361 co-expressed, FIG. 21F
T12 construct: expressed in transfected cells; host or cells: HEK293FT

CXCR5 and RAGE = target: T13, CXCR5 and RAGE (Homo sapiens, UniProt P32302+Q15109); assay: as above; conditions: mCherry-RAGE338-361 co-expressed, FIG. 21F
T13 construct: expressed in transfected cells; host or cells: HEK293FT
T13 sequence (P32302 whole entry): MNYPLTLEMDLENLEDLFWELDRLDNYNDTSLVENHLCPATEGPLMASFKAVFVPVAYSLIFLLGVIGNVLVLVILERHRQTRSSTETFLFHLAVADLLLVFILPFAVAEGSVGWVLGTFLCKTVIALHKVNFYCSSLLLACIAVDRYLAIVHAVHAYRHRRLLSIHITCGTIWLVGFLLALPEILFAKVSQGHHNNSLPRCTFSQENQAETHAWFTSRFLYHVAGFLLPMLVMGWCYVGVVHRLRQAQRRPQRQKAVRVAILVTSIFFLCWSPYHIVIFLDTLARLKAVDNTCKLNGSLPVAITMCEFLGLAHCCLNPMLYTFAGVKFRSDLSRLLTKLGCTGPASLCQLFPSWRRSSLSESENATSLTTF
T13 sequence (Q15109 23-404): as the sequence (Q15109 23-404) above

CXCR2 and RAGE = target: T14, CXCR2 and RAGE (Homo sapiens, UniProt P25025+Q15109); assay: as above; conditions: mCherry-RAGE338-361 co-expressed, FIG. 21F
T14 construct: expressed in transfected cells; host or cells: HEK293FT
T14 sequence (P25025 whole entry): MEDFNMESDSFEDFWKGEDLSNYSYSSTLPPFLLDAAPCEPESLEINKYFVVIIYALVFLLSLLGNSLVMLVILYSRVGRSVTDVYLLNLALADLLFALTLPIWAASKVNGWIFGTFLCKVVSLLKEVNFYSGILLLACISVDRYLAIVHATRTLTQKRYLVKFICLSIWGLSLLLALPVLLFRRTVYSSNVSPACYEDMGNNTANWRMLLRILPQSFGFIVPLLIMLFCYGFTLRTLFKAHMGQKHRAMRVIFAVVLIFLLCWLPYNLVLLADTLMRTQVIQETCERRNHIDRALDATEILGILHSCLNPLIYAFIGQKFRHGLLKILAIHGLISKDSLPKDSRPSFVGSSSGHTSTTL
T14 sequence (Q15109 23-404): as the sequence (Q15109 23-404) above

CCR6 and RAGE = target: T15, CCR6 and RAGE (Homo sapiens, UniProt P51684+Q15109); assay: as above; conditions: mCherry-RAGE338-361 co-expressed, FIG. 21F
T15 construct: expressed in transfected cells; host or cells: HEK293FT
T15 sequence (P51684 whole entry): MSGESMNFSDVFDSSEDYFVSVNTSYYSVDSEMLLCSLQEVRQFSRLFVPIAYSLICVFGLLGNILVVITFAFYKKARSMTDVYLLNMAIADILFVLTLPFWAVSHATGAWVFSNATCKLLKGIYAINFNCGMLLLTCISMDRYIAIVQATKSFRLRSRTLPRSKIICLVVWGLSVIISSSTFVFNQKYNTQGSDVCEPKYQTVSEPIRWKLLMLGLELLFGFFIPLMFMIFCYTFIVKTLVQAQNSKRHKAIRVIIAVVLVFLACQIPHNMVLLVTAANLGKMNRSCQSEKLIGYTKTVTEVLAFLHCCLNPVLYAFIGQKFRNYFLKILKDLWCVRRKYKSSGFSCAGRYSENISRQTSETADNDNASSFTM
T15 sequence (Q15109 23-404): as the sequence (Q15109 23-404) above

CCR2 and RAGE = target: T16, CCR2 and RAGE (Homo sapiens, UniProt P41597+Q15109); assay: as above; conditions: mCherry-RAGE338-361 co-expressed, FIG. 21F
T16 construct: expressed in transfected cells; host or cells: HEK293FT
T16 sequence (P41597 whole entry): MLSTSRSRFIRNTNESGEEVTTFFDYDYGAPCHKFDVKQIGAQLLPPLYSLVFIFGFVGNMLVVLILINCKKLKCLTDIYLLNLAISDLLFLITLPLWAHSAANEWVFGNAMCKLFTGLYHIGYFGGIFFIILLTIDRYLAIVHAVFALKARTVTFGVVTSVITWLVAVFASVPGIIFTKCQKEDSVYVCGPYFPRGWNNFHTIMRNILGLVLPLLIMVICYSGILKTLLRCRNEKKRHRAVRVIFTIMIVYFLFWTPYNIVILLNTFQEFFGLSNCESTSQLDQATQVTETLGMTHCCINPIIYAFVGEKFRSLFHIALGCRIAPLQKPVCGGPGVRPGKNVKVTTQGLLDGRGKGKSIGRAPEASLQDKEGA
T16 sequence (Q15109 23-404): as the sequence (Q15109 23-404) above

CCR5 and RAGE = target: T17, CCR5 and RAGE (Homo sapiens, UniProt P51681+Q15109); assay: as above; conditions: mCherry-RAGE338-361 co-expressed, FIG. 21F
T17 construct: expressed in transfected cells; host or cells: HEK293FT
T17 sequence (P51681 whole entry): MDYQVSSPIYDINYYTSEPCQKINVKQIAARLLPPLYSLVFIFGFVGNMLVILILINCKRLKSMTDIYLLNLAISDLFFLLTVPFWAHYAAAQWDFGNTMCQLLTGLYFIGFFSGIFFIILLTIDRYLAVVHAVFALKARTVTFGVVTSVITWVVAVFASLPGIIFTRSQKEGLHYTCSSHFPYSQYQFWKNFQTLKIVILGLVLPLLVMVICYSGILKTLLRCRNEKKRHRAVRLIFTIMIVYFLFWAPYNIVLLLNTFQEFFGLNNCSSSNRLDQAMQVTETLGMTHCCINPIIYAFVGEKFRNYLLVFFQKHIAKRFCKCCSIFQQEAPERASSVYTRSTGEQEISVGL
T17 sequence (Q15109 23-404): as the sequence (Q15109 23-404) above

[8] = target: T18, bradykinin receptor 2 (B2R) and RAGE (Homo sapiens, UniProt P30411+Q15109); assay: as above; conditions: mCherry-RAGE338-361 co-expressed, FIG. 21F
T18 construct: expressed in transfected cells; host or cells: HEK293FT
T18 sequence (P30411 whole entry): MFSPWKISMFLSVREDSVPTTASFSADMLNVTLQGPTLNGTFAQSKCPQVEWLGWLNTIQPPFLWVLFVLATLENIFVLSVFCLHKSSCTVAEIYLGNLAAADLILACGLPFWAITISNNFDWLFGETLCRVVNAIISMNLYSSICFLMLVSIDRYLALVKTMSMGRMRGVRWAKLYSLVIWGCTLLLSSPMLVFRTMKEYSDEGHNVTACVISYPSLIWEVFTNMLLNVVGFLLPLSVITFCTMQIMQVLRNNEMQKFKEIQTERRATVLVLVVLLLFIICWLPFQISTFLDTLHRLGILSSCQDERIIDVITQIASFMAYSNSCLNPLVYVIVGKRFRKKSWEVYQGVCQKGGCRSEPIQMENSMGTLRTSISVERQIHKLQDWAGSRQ
T18 sequence (Q15109 23-404): as the sequence (Q15109 23-404) above

[9] = target: T19, adrenergic α2B receptor and RAGE (Homo sapiens, UniProt P18089+Q15109); assay: as above; conditions: mCherry-RAGE338-361 co-expressed, FIG. 21F
T19 construct: expressed in transfected cells; host or cells: HEK293FT
T19 sequence (P18089 whole entry): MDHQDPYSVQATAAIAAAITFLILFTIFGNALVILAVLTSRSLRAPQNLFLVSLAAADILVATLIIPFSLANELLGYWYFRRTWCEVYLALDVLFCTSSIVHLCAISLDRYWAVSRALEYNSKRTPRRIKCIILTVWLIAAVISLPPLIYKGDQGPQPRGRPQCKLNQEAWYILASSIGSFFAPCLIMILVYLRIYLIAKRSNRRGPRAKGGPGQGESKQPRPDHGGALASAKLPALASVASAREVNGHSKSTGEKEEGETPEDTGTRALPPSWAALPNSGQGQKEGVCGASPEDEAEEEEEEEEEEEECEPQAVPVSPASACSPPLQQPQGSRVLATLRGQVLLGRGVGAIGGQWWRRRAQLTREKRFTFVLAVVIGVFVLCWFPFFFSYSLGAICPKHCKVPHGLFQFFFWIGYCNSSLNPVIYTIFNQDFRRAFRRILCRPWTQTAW
T19 sequence (Q15109 23-404): as the sequence (Q15109 23-404) above

AT1R and RAGE = target: T20, AT1R and RAGE (Homo sapiens, UniProt P30556+Q15109); assay: BRET between AT1R/Rluc8 and RAGE/Venus in HEK293FT cells
T20 construct: expressed in transfected cells; host or cells: HEK293FT
T20 sequence (Q15109 23-404, one chain of several): as the sequence (Q15109 23-404) above

[10] = target: T21, vasopressin receptor 2 (V2R) and RAGE (Homo sapiens, UniProt P30518+Q15109); assay: Ligand-induced BRET, Rluc8-tagged GPCR and RAGE/Venus; conditions: mCherry-RAGE338-361 co-expressed, FIG. 21F
T21 construct: expressed in transfected cells; host or cells: HEK293FT

CXCR4 and RAGE = target: T22, CXCR4 and RAGE (Homo sapiens, UniProt P61073+Q15109); assay: as above; conditions: mCherry-RAGE338-361 co-expressed, FIG. 21F
T22 construct: expressed in transfected cells; host or cells: HEK293FT
T22 sequence (P61073 whole entry): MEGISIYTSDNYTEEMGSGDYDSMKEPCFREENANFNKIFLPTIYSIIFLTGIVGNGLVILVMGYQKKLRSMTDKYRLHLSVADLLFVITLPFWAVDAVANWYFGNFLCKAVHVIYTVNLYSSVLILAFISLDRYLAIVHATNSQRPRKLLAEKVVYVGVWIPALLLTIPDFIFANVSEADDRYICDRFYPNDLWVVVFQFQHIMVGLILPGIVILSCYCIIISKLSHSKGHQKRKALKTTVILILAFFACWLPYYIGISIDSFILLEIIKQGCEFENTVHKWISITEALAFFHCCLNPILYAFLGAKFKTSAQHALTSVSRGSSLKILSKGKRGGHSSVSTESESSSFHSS
T22 sequence (Q15109 23-404): as the sequence (Q15109 23-404) above

**Q.** How did the “Ang II-induced induction of pro-inflammatory genes” value (RAGE) turn out when `CCCCC1=NC2(CCCC2)C(=O)N1Cc1ccc(-c2ccccc2-c2nnn[nH]2)cc1` [irbesartan] was run?
**A.** inhibitory effect

**Q.** What does the source list for “mCherry-RAGE338-361: the RAGE TMD with an extracellular juxta-membrane fragment linked to mCherry (LGTLALALGILGGLGTAALLIGVI; also: linked to mCherry)”?
**A.** inhibition of the change in the ligand-induced BRET signal between the Rluc8-tagged GPCR and RAGE/Venus [1]: particularly clear inhibition; inhibition of the change in the ligand-induced BRET signal between the Rluc8-tagged GPCR and RAGE/Venus [2]: particularly clear inhibition; inhibition of the change in the ligand-induced BRET signal between the Rluc8-tagged GPCR and RAGE/Venus [3]: particularly clear inhibition; inhibition of the change in the ligand-induced BRET signal between the Rluc8-tagged GPCR and RAGE/Venus (CCR7 and RAGE): small yet discernible inhibition; inhibition of the change in the ligand-induced BRET signal between the Rluc8-tagged GPCR and RAGE/Venus (CCR4 and RAGE): particularly clear inhibition; inhibition of the change in the ligand-induced BRET signal between the Rluc8-tagged GPCR and RAGE/Venus [4]: small yet discernible inhibition; BRET signal with extracellularly luciferase-tagged AT1 receptor (Nluc-AT1) (AT1): BRET signal is observed; inhibition of the change in the ligand-induced BRET signal between the Rluc8-tagged GPCR and RAGE/Venus [5]: particularly clear inhibition; inhibition of the change in the ligand-induced BRET signal between the Rluc8-tagged GPCR and RAGE/Venus [6]: particularly clear inhibition; inhibition of the change in the ligand-induced BRET signal between the Rluc8-tagged GPCR and RAGE/Venus (CCR9 and RAGE): particularly clear inhibition; inhibition of the change in the ligand-induced BRET signal between the Rluc8-tagged GPCR and RAGE/Venus [7]: particularly clear inhibition; inhibition of the change in the ligand-induced BRET signal between the Rluc8-tagged GPCR and RAGE/Venus (CCR1 and RAGE): particularly clear inhibition; inhibition of the change in the ligand-induced BRET signal between the Rluc8-tagged GPCR and RAGE/Venus (CXCR5 and RAGE): small yet discernible inhibition; inhibition of the change in the ligand-induced BRET signal between the Rluc8-tagged GPCR and RAGE/Venus (CXCR2 and RAGE): particularly clear inhibition; inhibition of the change in the ligand-induced BRET signal between the Rluc8-tagged GPCR and RAGE/Venus (CCR6 and RAGE): particularly clear inhibition; inhibition of the change in the ligand-induced BRET signal between the Rluc8-tagged GPCR and RAGE/Venus (CCR2 and RAGE): particularly clear inhibition; inhibition of the change in the ligand-induced BRET signal between the Rluc8-tagged GPCR and RAGE/Venus (CCR5 and RAGE): particularly clear inhibition; inhibition of the change in the ligand-induced BRET signal between the Rluc8-tagged GPCR and RAGE/Venus [8]: particularly clear inhibition; inhibition of the change in the ligand-induced BRET signal between the Rluc8-tagged GPCR and RAGE/Venus [9]: particularly clear inhibition; inhibition of the change in the ligand-induced BRET signal between the Rluc8-tagged GPCR and RAGE/Venus (AT1R and RAGE; angiotensin receptor AT1 (AT1R), mCherry-RAGE338-361 co-expressed, FIG. 21F): particularly clear inhibition; BRET between full length RAGE and AT1 (saturation and kinetic assays) (AT1R and RAGE; overexpression of mCherry-RAGE338-361, FIG. 21B, 21C): modulates BRET between full length RAGE and AT1 in a dose dependent fashion; inhibition of the change in the ligand-induced BRET signal between the Rluc8-tagged GPCR and RAGE/Venus [10]: particularly clear inhibition; inhibition of the change in the ligand-induced BRET signal between the Rluc8-tagged GPCR and RAGE/Venus (CXCR4 and RAGE): particularly clear inhibition
